Biological target: Human type 1 atelo-collagen (UniProt P02452)
Sequence (P02452 179-1192, chain 1 of 2): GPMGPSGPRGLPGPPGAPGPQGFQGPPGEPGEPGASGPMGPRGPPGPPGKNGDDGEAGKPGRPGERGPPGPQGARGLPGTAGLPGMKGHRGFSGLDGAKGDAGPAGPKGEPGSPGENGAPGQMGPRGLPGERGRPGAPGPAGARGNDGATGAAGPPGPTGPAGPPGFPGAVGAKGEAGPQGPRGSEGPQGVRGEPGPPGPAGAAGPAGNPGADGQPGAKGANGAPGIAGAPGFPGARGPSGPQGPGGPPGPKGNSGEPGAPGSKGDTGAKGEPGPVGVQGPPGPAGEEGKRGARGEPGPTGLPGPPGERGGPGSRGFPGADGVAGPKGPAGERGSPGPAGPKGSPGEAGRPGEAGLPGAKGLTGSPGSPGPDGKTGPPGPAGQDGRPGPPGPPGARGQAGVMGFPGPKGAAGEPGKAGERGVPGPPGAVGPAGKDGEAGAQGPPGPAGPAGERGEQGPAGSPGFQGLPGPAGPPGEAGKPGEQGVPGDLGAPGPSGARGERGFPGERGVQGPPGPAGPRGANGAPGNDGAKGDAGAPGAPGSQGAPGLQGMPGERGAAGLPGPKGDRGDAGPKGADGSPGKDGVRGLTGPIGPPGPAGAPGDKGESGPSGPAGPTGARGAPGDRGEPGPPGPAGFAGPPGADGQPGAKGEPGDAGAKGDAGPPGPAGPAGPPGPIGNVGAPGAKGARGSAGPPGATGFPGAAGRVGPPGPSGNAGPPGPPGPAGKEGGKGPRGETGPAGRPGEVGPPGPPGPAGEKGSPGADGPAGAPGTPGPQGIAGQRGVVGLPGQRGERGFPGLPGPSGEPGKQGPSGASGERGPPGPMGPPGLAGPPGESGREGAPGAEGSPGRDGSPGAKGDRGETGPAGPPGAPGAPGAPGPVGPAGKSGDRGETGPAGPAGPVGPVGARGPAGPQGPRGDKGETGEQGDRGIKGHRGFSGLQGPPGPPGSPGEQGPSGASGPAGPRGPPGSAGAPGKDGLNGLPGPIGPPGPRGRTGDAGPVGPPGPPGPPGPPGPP
Sequence (chain, as listed by the source, chain 2 of 2): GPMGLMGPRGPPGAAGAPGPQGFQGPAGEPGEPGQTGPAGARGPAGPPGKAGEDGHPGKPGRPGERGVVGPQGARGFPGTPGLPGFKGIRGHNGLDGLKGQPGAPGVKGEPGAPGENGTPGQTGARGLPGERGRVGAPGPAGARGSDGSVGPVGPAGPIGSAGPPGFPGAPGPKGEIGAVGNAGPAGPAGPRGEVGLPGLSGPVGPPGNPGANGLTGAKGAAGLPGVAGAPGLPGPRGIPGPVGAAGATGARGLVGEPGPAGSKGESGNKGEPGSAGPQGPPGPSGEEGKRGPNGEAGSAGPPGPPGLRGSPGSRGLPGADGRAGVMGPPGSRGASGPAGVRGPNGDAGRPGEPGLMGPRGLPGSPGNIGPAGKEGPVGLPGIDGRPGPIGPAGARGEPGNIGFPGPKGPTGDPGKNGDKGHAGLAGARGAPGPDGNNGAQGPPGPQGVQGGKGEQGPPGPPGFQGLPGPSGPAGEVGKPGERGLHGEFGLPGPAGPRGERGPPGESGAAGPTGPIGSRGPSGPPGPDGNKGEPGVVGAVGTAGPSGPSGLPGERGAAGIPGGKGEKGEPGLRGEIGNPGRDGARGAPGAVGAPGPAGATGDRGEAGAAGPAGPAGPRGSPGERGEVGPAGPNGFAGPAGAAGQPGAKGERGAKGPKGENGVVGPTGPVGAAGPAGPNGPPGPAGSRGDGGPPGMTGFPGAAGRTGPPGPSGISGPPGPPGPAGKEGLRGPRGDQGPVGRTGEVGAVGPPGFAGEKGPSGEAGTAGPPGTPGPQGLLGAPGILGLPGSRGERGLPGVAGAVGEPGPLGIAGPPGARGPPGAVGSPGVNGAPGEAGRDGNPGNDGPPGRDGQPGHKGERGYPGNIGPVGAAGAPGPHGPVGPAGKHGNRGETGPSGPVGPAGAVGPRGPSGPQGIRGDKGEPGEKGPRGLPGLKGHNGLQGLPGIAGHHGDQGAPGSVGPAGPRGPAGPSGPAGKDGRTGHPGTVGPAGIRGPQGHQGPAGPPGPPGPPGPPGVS

With “matrix metalloproteinase-1 (MMP-1), activated with 2 mM APMA” as the substance, how does the “reduction in the full length alpha1(I) and alpha2(I) chains (SDS-PAGE, band quantitation)” value read?
Its value is “an approximately 7.4-fold (over 80%) reduction in the full length of these chains when collagen was treated with MMP-1”.
